Patent US20230192887A1 (published 2023)

Assays:
[1] = target: T1, recombinant human TfR apical domain (human, UniProt P02786 198-378); test: SPR (Biacore T200 or 8K); protein captured on anti-human Fab chip, recombinant human TfR apical domain as analyte; 1:1 Langmuir fit
T1 construct: also called transferrin receptor protein 1 apical domain
Method: Affinities of the bispecific proteins were measured by SPR using a Biacore T200 or a Biacore 8K. Biacore™ Series S CM5 sensor chips were immobilized with monoclonal mouse anti-human IgG (Fc) antibody for HER2 affinity measurements or mouse anti-human Fab for TfR affinity measurements (human antibody or Fab capture kit from GE Healthcare). Serial 3-fold dilutions of analyte (recombinant HER2 extracellular domain or recombinant TfR apical domain) were injected at a flow rate of 30 μL/min. Each sample was analyzed using a 3-minute association and a 10-minute dissociation for HER2 extracellular domain binding and a 40-second association and a 3-minute dissociation for human TfR apical domain binding. After each injection, the chip was regenerated using 3 M MgCl₂ or 50 mM glycine at pH 2.0. Binding response was corrected by subtracting the RU from a flow cell capturing an irrelevant IgG at similar density. A 1:1 Languir model of simultaneous fitting of kon and koff was used for kinetics analysis. […] The two constructs are described below.

[2] = target: HER2 on HER2^+ tumor cell lines (BT474, OE19, ZR75) (UniProt P04626 23-1255, limits assumed); test: cell-based or functional assay

T1 sequence (P02786 198-378 limits assumed): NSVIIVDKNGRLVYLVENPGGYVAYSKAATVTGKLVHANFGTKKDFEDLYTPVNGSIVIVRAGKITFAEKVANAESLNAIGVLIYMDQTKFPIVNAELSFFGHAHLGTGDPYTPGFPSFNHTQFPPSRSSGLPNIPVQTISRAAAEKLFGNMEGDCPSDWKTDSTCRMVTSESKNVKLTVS

| Kd [1] | IC50 (nM), BT474 + NRG1 [2] | IC50 (nM), BT-474 [2] | IC50 (nM), OE19 [2] | Binder | Min Cell viability (%), BT474 + NRG1 [2] | Min Cell viability (%), BT-474 [2] | Min Cell viability (%), OE19 [2] | Min Cell viability (%), ZR75-30 [2] |
| --- | --- | --- | --- | --- | --- | --- | --- | --- |
| 500 nM | 3.5 nM | 2.3 nM | 1.1 nM | Bispecific Protein #9 (bispecific antibody, human IgG1, kappa, L234A L235A) heavy 1: EVQLVESGGGLVQPGGSLRLSCAASGFTFTDYTMDWVRQAPGKGLEWVADVNPNSGGSIYNQRFKGRFTLSVDRSKNTLYLQMNSLRAEDTAVYYCARNLGPSFYFDYWGQGTLVTVSSASTKGPSVFPLAPSSKSTSGGTAALGCLVKDYFPEPVTVSWNSGALTSGVHTFPAVLQSSGLYSLSSVVTVPSSSLGTQTYICNVNHKPSNTKVDKKVEPKSCDKTHTCPPCPAPEAAGGPSVFLFPPKPKDTLMISRTPEVTCVVVDVSHEDPEVKFNWYVDGVEVHNAKTKPREEQYNSTYRVVSVLTVLHQDWLNGKEYKCKVSNKALPAPIEKTISKAKGQPREPQVYTLPPSRDELTKNQVSLWCLVKGFYPSDIAVEWESYGTEWSNYKTTPPVLDSDGSFFLYSKLTVSKEEWQQGFVFSCSVMHEALHNHYTQKSLSLSPGK heavy 2: not shown light: not shown | 37% | 21% | 57% | 87% |
| 480 nM | – | – | – | Bispecific Protein #2 (bispecific antibody, human IgG1, kappa, L234A L235A) heavy: EVQLVESGGGLVQPGGSLRLSCAASGFTFTDYTMDWVRQAPGKGLEWVADVNPNSGGSIYNQRFKGRFTLSVDRSKNTLYLQMNSLRAEDTAVYYCARNLGPSFYFDYWGQGTLVTVSSASTKGPSVFPLAPSSKSTSGGTAALGCLVKDYFPEPVTVSWNSGALTSGVHTFPAVLQSSGLYSLSSVVTVPSSSLGTQTYICNVNHKPSNTKVDKKVEPKSCDKTHTCPPCPAPEAAGGPSVFLFPPKPKDTLMISRTPEVTCVVVDVSHEDPEVKFNWYVDGVEVHNAKTKPREEQYNSTYRVVSVLTVLHQDWLNGKEYKCKVSNKALPAPIEKTISKAKGQPREPQVYTLPPSRDELTKNQVSLWCLVKGFYPSDIAVEWESYGTEWSNYKTTPPVLDSDGSFFLYSKLTVSKEEWQQGFVFSCSVMHEALHNHYTQKSLSLSPGK not shown light: not shown | – | – | – | – |
